One series concerns the target T1, C12-279 Q186R (Mut-01) (synthetic construct, Q186R).
T1 chain: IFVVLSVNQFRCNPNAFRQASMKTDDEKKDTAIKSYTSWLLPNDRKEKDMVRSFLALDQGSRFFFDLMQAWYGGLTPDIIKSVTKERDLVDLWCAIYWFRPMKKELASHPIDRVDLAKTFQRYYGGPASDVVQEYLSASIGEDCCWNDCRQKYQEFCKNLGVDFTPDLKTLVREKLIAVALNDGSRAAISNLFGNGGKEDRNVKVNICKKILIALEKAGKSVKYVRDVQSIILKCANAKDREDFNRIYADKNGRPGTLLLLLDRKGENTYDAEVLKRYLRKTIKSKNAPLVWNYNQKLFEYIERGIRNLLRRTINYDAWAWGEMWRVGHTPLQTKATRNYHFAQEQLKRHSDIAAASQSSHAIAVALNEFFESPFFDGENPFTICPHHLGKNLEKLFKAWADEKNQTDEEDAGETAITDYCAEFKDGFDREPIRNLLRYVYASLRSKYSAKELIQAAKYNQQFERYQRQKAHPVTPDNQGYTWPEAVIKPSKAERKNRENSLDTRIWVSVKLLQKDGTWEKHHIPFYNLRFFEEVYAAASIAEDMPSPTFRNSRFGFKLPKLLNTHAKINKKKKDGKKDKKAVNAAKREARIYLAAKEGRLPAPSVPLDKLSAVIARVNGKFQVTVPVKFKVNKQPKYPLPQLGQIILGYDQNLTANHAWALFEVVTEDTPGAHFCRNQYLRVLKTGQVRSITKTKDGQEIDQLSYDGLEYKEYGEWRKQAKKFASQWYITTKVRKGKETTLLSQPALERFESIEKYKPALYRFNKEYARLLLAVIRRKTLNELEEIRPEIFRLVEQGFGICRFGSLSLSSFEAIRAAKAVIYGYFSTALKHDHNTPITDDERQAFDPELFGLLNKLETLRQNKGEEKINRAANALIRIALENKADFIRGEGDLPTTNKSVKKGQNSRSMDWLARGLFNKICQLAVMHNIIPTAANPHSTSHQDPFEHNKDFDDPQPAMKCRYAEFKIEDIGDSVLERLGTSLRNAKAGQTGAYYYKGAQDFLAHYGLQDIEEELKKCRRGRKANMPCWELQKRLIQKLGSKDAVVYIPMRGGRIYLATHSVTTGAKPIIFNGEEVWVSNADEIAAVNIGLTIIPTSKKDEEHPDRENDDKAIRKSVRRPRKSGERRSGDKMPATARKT
Briefly: cell_activity; PAM TTG; +/-0.32. As for the experimental part: Transfection: transfection was performed 12-14 h after plating. 1.5 μL PEI (Yeasen Biotechnology, 40815ES03, Polyethylenimine Linear (PEI) MW25000) and 500 ng mutation clone plasmid were added to 100 μL Opti-MEM per well of the 24-well plate, mixed, and added to the NAAN cell line for cell transfection after placing at room temperature for 20 min. After overnight transfection, a fresh culture medium was replaced, and the culture was continued for 72 h, followed by flow cytometry. Editing efficiencies of different mutant clones were characterized by the proportion of GFP-positive cells.
Editing efficiency of some selected mutants was tested in Reporter3 cell line using the same manner as described for the NAAN reporter system, except that the cell line was changed from NAAN cell line to Reporter3 cell line.

The target in series [1] is T2, C12-279 Mut-02-1-5-426-858-860 (synthetic construct, I1R,L5R,Q186R,D352R,D426R,858R,L860R).
T2 chain: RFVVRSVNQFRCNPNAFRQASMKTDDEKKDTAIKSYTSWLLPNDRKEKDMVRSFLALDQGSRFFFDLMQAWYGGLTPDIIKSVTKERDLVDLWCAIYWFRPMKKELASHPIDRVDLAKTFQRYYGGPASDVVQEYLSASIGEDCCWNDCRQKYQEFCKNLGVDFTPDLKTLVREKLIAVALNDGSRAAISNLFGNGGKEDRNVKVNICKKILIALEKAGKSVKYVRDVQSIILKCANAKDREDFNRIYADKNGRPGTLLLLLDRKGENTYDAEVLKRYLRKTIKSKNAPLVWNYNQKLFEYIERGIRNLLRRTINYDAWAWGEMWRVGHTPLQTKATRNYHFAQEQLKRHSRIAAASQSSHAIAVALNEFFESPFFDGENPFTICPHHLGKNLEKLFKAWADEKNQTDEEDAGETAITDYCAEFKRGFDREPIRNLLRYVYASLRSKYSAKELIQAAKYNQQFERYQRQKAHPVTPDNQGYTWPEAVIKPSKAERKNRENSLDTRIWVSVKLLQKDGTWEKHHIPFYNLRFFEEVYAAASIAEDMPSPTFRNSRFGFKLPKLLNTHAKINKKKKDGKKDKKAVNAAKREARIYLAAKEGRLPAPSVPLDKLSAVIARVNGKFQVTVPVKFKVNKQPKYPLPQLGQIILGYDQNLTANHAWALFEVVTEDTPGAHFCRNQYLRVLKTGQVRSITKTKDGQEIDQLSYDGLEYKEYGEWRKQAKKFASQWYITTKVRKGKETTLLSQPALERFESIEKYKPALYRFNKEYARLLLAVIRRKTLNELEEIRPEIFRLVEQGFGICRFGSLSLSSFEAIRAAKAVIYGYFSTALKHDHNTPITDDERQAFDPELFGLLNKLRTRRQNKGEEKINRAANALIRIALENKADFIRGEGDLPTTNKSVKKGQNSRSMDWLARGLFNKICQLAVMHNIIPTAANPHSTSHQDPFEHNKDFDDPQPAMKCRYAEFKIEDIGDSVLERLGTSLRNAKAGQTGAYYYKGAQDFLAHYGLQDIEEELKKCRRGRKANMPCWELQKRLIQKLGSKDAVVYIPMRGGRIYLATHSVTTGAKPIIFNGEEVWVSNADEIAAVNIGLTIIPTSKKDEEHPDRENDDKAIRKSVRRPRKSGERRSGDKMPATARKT
Briefly: cell_activity; PAM TTG.

B1: C12-279 Reporter3 sgRNA ; Reporter3 target (ssRNA ; dsDNA)
RNA: GUAAUGCGUCUCCCAUUGACGCCUCACCUCGCGACGCAAUGAUG
DNA 1: CTCACCTCGCGACGCAATGATG
DNA 2: CATCATTGCGTCGCGAGGTGAG
On to B1, for which the binding signal was 1.6 fold of C12-279 with C12-279 Q186R (Mut-01) and 3.77 fold of C12-279 in series [1].

These data come from patent publication US20260009052, “CAS12 PROTEINS AND USES THEREOF” (GUANGZHOU REFORGENE MEDICINE CO., LTD., published 2026).
